The values that follow come from the DeepSol protein solubility set.

The nature of the series: soluble on expression in E. coli; label from the status in PepcDB or PDB records.
For “MVEEFKVTPWEVEGVVDYDKLIKHFGTSPLTEDLLEKTAELTKSELPIFFRRKFFFSHRDYDLILKDYEEGRGFFLYTGRGPSGPMHIGHIIPFFATKWLQEKFGVNLYIQITDDEKFLFKENLTFDDTKRWAYDNILDIIAVGFDPDKTFIFQNSEFTKIYEMAIPIAKKINFSMAKAVFGFTEQSKIGMIFFPAIQIAPTFFERKRCLIPAAIDQDPYWRLQRDFAESLGYYKTAALHSKFVPSLTSLSGKMSASKPETAIYLTDSPEDVEKKVWKFTLTGGRPTLKEQREKGGEPEKCVVFKWLEIFFEEDDKKLKERYYACKNGELTCGECKRYLISKIQEFLKEHQRRRKKAEKLVEKFKYTGKLAQEMWNEAIPEPLKRSHHHHHH”, the “soluble on expression in E. coli” value was “soluble”. For the sequence “SESWRSFFKEALQGVGDMGRAYWDIMISNHQNSNRYLYARGNYDAAQRGPGGVWAAKLISRSRVYLQGLIDYYLFGNSSTVLEDSKSNEKAEEWGRSGKDPDRFRPDGLPKKY”, the “soluble on expression in E. coli” value is on record as “soluble”. As to “MGRVYYINSHGTLSRHENTLRFENAEVKKDIPVEDVEEIFVFAELSLNTKLLNFLASKGIPLHFFNYYGYYTGTFYPRESSVSGHLLIKQVEHYLDAQKRLYLAKSFVIGSILNLEYVYKISADTYLNKVKETNSIPELMSVEAEFRKLCYKKLEEVTGWELEKRTKRPPQNPLNALISFGNSLTYAKVLGEIYKTQLNPTVSYLHEPSTKRFSLSLDVAEVFKPIFVDNLIIRLIQENKIDKTHFSTELNMTFLNEIGRKVFLKAFNELLETTIFYPKLNRKVSHRTLIKLELYKLIKHLLEEEVYLPLNYGGLK”, the “soluble on expression in E. coli” value is given as “soluble”. With “MAHHHHHHMFCFSRGLWMRHIGQDVPKRHTHFVLESRLMYEKSFRDCWLHSVCRAISQLDEPLSKTVVGTHQKMLQRKVTCFQYNQYGLFKTPYYRLANVDRYHAVQGVAGTREWVPYVNVSYWTMNKMVRGGNLLVHRVHYTGWGTDSHLKKGGWEHRWNKVLQRNVLQYSRI”, the “soluble on expression in E. coli” value is given as “not soluble”. “MREQQPDVPPAEPANDVVAPPPLMDLGPPVNPMLPLDLPYNVVREIGIAVSSKITILLLRTPNYKLD”: the “soluble on expression in E. coli” value is given as “not soluble”. On to “MYKVSHGLSMVHEDEMGVNAPMDHQRVISKLNVGLGKLFYYDKAISLEPLPETMLDEGRTSRYDGPPTPDLILYDKARDHIPVIIEVCHTRGLKGDLQKVVSLIEDFPYDILEGFVYNYRTEHWFRYRKGDNGIATETSFSEILQLDLNQFL”, for which the “soluble on expression in E. coli” value is given as “not soluble”. In the case of “MANQIYLFSLICLSVLLCQSYTVSSFQKSLDLAKPCKRFVLHLHDIAYDGDNAANATSAAIVNPLGLGDFSFGKFVIMDDPVTMDQNYLSKPVARVQGFFCYHGKATYDAWIAWTVVFNSTQHKGAFTIMGENPFMEPTRDLPIVGGTGDFIMTRGIATLTTDHIDGSKYFRVKLDIKLYECYH”, the “soluble on expression in E. coli” value is “soluble”. As for “MGHHHHHHSHMTATVENLTFQKDTLGNAVDKNRRHGSTEPLVLAWSSQFRRLTWGCALDALHRSPCVAASQHGVTHLIRSSRTPHSTRCRKEDAQPGHHGNGAASVTAQARGQR”, the “soluble on expression in E. coli” value is reported as “not soluble”. To “MCLDKMTDIRVRGYKSISFWQEEGIGLIVIRSDSHGRFDLNTLGEITAAIGIAAMDGSVRAVALTGMNNIFGRQLVIGQLSNNTVYNVMQSSSSLISMIYTFEKPIFSILNGDAIDEGYEIALLADRIISADDIKVGFSRDYEFKIGGSFTSLRMTKTDISGPAEGINVDRVVKHESLLEDAKNIIKETADINFPMRRRQRYRYISELINAEKINFYEHYLARS” belongs “not soluble”. With “GAQVSSQKVGAHENSNRAYGGSTINYTTINYYKDSASNAASKQDYSQDPSKFTEPLKDVLIKTAPALN”, the “soluble on expression in E. coli” value is on record as “soluble”. As to “MGSDKIHHHHHHMQTLKRGFAVAALLFSPLTMAQDINAQLTTWFSQRLAGFSDEVVVTLRSSPNLLPSCEQPAFSMTGSAKLWGNVNVVARCANEKRYLQVNVQATGNYVAVAAPIARGGKLTPANVTLKRGRLDQLPPRTVLDIRQIQDAVSLRDLAPGQPVQLTMIRQAWRVKAGQRVQVIANGEGFSVNAEGQAMNNAAVAQNARVRMTSGQIVSGTVDSDGNILINL”, the “soluble on expression in E. coli” value is reported as “not soluble”.

In the case of “QTVARKCSLTGEWDNDLGSIMTIGAVNDNGEFDGTYITAVADNPGNITLSPLLGIQHKRASQPTFGFTVHWNFSESTSVFVGQCFVDRSGKEVLKTKWLQRLAVDDISDDWIATRVGNNDFTRQHTVEE”, the “soluble on expression in E. coli” value was “soluble”.

Turning to “MRPLILSIFALFLAGCTHSQQSMVDTFRASLFDNQDITVADQQIQALPYSTMYLRLNEGQRIFVVLGYIEQEQSKWLSQDNAMLVTHNGRLLKTVKLNNNLLEVTNSGQDPLRNALAIKDGSRWTRDILWSEDNHFRSATLSSTFSFAGLETLHIAGRDVLCNVWQEEVTSTLPEKQWQNTFWVDSATGQVRQSRQMLGAGVIPVEMTFLKPAP”, the “soluble on expression in E. coli” value is “not soluble”. Next, “MSLKEVAAKTGIGTLPEWNLGDLYMGIDAPEIAHDLAKMDAECVAFETDYKGKLAEHVARDDGGEWLAAAVRRYEAIDDLAGRLGSFAGLAHAGDSVDPAISKFYGDISERLTAASTHLLFFPLELNRIDDAVIERAMETPALGHYRPWIEDLRKDKPYQLEDRVEQLFHEKSQTGYSAWNRLFDQTIAGLRFQVGGKELAIEPTLNFLQDRDGAKRKAAAEALAKTFKANERTFALITNTLAKDKDISDRWRGFQDVADSRHLNNRVEREVVDALVASVRAAYPKLSHRYYQLKARWFKKKKLAHWDRNAPLPFAANATIAWPDAKNMVLTAYRGFSPEMADIAQRFFDQSWIDAPVRPGKAPGAFSHPTTPSAHPYVLMNYQGKPRDVMTLAHELGHGVHQVLAARQGALMAPTPLTLAETASVFGEMLTFKRLLSETRDAKQRQALLAGKVEDMINTVVRQIAFYSFERAVHTERKNGELTAERLGQIWLSVQTESLGEAIEIKPGYENFWMYIPHFIHSPFYVYAYAFGDCLVNSLYAVYEHAAEGFAERYLAMLAAGGTKHYSELLAPFGLDAKDPKFWDGGLSVIAGMIDELERMGEGHHHHHH”: “soluble”; “GAMGQTTFTELMQQLFLKLGLNHQVNENDVYTFEVDGHIQVLIACYHQQWVQLFSELGADLPTNDNLFGEHWPAHVQGRLDGKSILWSQQSLVGLDIDEMQAWLERFIDDIEQRKEPQNTKFQPNSTSPILFI”: “soluble”; “MAHHHHHHMDKGCSDCFFACHRYENWIDNQKEQFLKQRGEYENVINGTSSSSSSVGGKRQTRRTRSISSDDNGYESKFYKKLKERGYSEVKNFFEKLNKEKECQNFDDKGGEFDFNEHVDKDKEYKGTFYHSKYCEVCPGCGVKRDGNDWKEKSGGRCTRKKRYKILDDNNFNGIDVLSFGDKRNEIKQKIDTFCGGSNEEKEKLKEQWKCYEAQYVKEDKKEDEEDEDEVEEEDDLKDAGGLCTLQNKKK”: “not soluble”. To “MGSDKIHHHHHHKDPVINDLKDSEGNNISFTLNAPNNSSYTLMPENASSIIDIFTCEQPDYGFAAGVTYTVQVCEGGTEFEKFESLPTTGSGEKVLIKTFELNDAMNNLGMVNPTVAYNVDFRLKAFINDSVPELYSNTVNMAITPYSGARTQVYFVGDIFDNGWNNNDPSMRIFADDDVNNMLFTYTGFVKAGSAFKIIQTPGDWGIQWGYDSDGALSNDGGSGNIEGFTQDGYYTITLDLAGNKYSIEPYTGATTEYKQISLIGDFNDWGGDLDLQQASYDKHIWIGEKIEIPSDGGLKLRADHDWAVSFGGSNSLWNDKQGQFAKFDGGDNVKVSAGTYFIKFNDLTKHIILLAE” belongs “not soluble”; to “TGILLANLGTPDAPTPEAVKRYLKQFLSDRRVVDTSRLLWWPLLRGVILPLRSPRVAKLYASVWMEDGSPLMVYSRQQQQALAQRLPDTPVALGMSYGSPSLESSVDELLAEHVDHIVVLPLYPQFSCSTVGAVWDELARILARKRSIPGISFIRDYADNHDYINALANSVRASFAKHGEPDLLLLSYHGIPQRYADEGDDYPQRCRTTTRELASALGMVPEKVMMTFQSRFGREPWLMPYTDETLKMLGEKGVGHIQVMCPGFAADCLETLEEIAEQNREVFLGAGGKKYEYIPALNATPEHIEMMANLV”, “not soluble”; to “MNGFDGLQEEESSDLKSIQKELAILKLKLSEQESLFNSITENTLAGYWIWDIPLNTMFISAHLKSMLGYADHELENSPETINMLMHPSDLPATYALLSKHVESDGKVPFEIEVRYKHKNGSIVWVICSGNIVTRDENGKPSKMIGCHLDNTELKKAQGVQKYTEELERKNVEMEQFAYVASHDLQEPLNTIQGFIALLSAKLEDAPDPDVTQYLHYINQSTLRMTNLIKGLLEYSRIGKNVVMSKIDCNQVITDVLMDLHIQVEETQADIEVTPLPFVMGYDIELRILFQNLISNALKFSVRRPVIKIYSVVEGGYFKFSVADNGIGIDPQFREKIFKLYQQLHPKSTYEGNGLGLAQCFKIVTELHSGSIWVESNEKEGSIFHFTIPYNA”, “not soluble”.

As for “MSLNSLLLVSRIYQQTCIDDLAQLANEVKASFVRLVNEDANSHMIGTAMSTIGRAFTQRIIELVEAELGAAPLPYCFVAFGSMGRDEQLIVTDQDNALILDDRYDVQQHGAYFAQFAELVCRGLDRCGYPLCDGEIMASNPKWRMTRKEWETCFADWIDNPNPQALLNASIFFDLDGVYGRTKWAEQLSGFIVRRARRNQRFLACLARNALNRTPPLGFFKNFVMEKDGRHNNSINLKRRGTAPLADLIRVHALAAGSRAKNSFERLDDVIEAGLLPQGKGKDLRDALEFIAMVRIRHQAIDVEQEREADNSIEPEHLSDFERRNLKDAFQILSNGQNYLKYRYQANQHFKEGHHHHHH”, the “soluble on expression in E. coli” value is “soluble”.

As for “MGSDKIHHHHHHMKSKIYILLLFLIFLSACANTRHSESDKNVLTVYSPYQSNLIRPILNEFEKQEHVKIEIKHGSTQVLLSNLHNEDFSERGDVFMGGVLSETIDHPEDFVPYQDTSVTQQLEDYRSNNKYVTSFLLMPTVIVVNSDLQGDIKIRGYQDLLQPILKGKIAYSNPNTTTTGYQHMRAIYSMHHRVSDVHQFQNHAMQLSKTSKVIEDVAKGKYYAGLSYEQDARTWKNKGYPVSIVYPIEGTMLNVDGIALVKNAHPHPKRKKLVQYLTSRSVQQRLVAEFDAKSIRKDVSEQSDQSIENLKNIPLIPKSKLPDIPHHKFLEMIQ”, the “soluble on expression in E. coli” value is listed as “not soluble”. On to “MAWLRFFSRTLKSLPQISSSSPNPNPNFRTSPFSTSFLITKTPDKLKKKRKKPESARTKSIQHESTKLPHLESLVSRDAHFRFLIRSKEFISKQPERILRLDDAGKLYRELGFPRGRKVTKFIPKHPLIFQTYRHSDGKIWLGFTEFMEDLLDEEKGLMESMELDRVNCVRKLLMMTKDKRILLSKIHHTRLLFGIPEDFRDRVAKYPDYFRVVTGGDGNRVLELVNWDTNLAHGKELELEEKDTRKLNLLNTFPLVSPYSDGWKLDVWSLEAEKYRVGIVHEFLNLTLEKRASIHHIVEFKDEFSLTRQTYQMLKKQSMSFYLAGTEMNWTVFLKDAYDENGVLVSKDPQVVFNEKLYKYADMQQMEQVG”, for which the “soluble on expression in E. coli” value is “soluble”. With “MQLEDYTAATNIAKKDFMPGTTKIDRALTGQVAGLQVKRSSGMPGEGSYYNLRGIRTLTGDNAPLIVINGVPHMPDKTPSALIDGFTRDIFQFYHLQDIQNITILKGAEAAMYGSMGSNGVILIETDGTASN”, the “soluble on expression in E. coli” value was “not soluble”.
